Results as given in publication PMC11490872, “Drug-resistant menin variants retain high binding affinity and interactions with MLL1” (The Journal of Biological Chemistry, 2024).
Where a chain is given by its changes, count along the chain named. Like-named read-outs stand apart in the source and are kept apart here. Each block holds one molecule with its values, some of them ahead of it.

Assays:
[1] = system: patients with MLL1-r and NPM1-mut acute leukemias; conditions: cited from earlier work
menin^G331R = molecular target: T1, menin^G331R (Homo sapiens, UniProt O00255, G326R); assay: ITC binding of MLL1 fragments to menin^G331R
T1 construct: The gene encoding full-length human menin was cloned into a pET32a expression vector; thioredoxin-His6 (cleaved yes); made in house; host or cells: E. coli BL21(DE3)
T1 sequence (O00255 1-610 G326R): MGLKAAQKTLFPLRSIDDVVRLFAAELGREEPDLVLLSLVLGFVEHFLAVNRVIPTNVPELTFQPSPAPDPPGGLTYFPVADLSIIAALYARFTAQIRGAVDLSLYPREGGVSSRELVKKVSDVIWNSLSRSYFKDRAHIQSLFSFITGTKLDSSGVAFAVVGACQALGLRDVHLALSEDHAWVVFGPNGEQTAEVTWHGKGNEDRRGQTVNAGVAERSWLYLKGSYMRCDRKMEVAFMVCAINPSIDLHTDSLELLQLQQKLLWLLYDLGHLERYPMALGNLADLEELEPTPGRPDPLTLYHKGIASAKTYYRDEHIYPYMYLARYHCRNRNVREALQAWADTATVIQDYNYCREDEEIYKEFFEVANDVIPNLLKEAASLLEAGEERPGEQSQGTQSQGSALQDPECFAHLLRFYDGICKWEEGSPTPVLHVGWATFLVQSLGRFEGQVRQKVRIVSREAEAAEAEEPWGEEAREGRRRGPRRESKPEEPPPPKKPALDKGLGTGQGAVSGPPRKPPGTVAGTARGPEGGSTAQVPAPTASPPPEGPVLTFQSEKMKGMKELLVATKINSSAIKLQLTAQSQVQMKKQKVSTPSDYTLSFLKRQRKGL
Procedure: (§1) Menin and MLL1 fragments were dialyzed at 4 °C against a 50 mM sodium phosphate pH 7.5, 50 mM NaCl, 1 mM TCEP buffer, and degassed prior to measurement. The titrations were performed using the VP-ITC system (MicroCal) at 25 °C. The calorimetric cell, which contained menin (concentrations in the 5–10 μM range), was titrated with the MLL1^160 and MLL1^4-15 derived peptides (concentration range 40–100 μM) injected in 10-μL aliquots. Data was analyzed using Origin 7.0 (OriginLab) to obtain Kd, stoichiometry, entropy, and enthalpy ([2]). Experiments with WT, M327I, T349M, and G331R menin and MLL1^160 or MLL1^4-15 were run in duplicate. Experiments with G331D menin and MLL1^160 were run in duplicate while experiments with G331D and MLL1^4-15 were run in quadruplicate.

menin^T349M = molecular target: T2, menin^T349M (Homo sapiens, UniProt O00255, T344M); assay: ITC binding of MLL1 fragments to menin^T349M
T2 construct: The gene encoding full-length human menin was cloned into a pET32a expression vector; thioredoxin-His6 (cleaved yes); made in house; host or cells: E. coli BL21(DE3)
T2 sequence (O00255 1-610 T344M): T1 sequence (O00255 1-610 G326R) with R326G, T344M
Procedure: as §1

menin^G331D = molecular target: T3, menin^G331D (Homo sapiens, UniProt O00255, G326D); assay: ITC binding of MLL1 fragments to menin^G331D
T3 construct: The gene encoding full-length human menin was cloned into a pET32a expression vector; thioredoxin-His6 (cleaved yes); made in house; host or cells: E. coli BL21(DE3)
T3 sequence (O00255 1-610 G326D): T1 sequence (O00255 1-610 G326R) with R326D
Procedure: as §1

[2] = Phase 1/2, AML patients with KMT2A (MLL1) rearrangements and NPM1 mutations
[3] = ITC, representative binding isotherm Fig. 1A, 25 °C, read-out: Kd

Molecule: CCN(C(=O)c1cc(F)ccc1Oc1cncnc1N1CC2(CCN(C[C@H]3CC[C@H](NS(=O)(=O)CC)CC3)CC2)C1)C(C)C [Revumenib, reference compound]
complete remission [1, 2]: ~35%
overall response rate [1, 2]: ~45%
rate of complete remission ([1]; phase 1/2 first-in-human trials, MLL1-r and NPM1-mut acute leukemias): over 30%

Kd (menin^G331R; ITC summary Fig. 1B, values marked *, n = 2, read-out: G331R Kd (nM), ITC): 1.3 ± 0.3 nM
Kd (menin^G331R; [3]): 1.1 ± 0.3 nM
Kd (menin^T349M; ITC summary Fig. 1B, values marked *, n = 2, read-out: T349M Kd (nM), ITC): 2.6 ± 0.7 nM
Kd (menin^T349M; [3]): 2.6 ± 0.7 nM
Kd (menin^G331D; ITC summary Fig. 1B, * n = 2, ^ n = 4, read-out: G331D Kd (nM), ITC): 1.4 ± 0.7 nM
Kd (menin^G331D; [3]): 1.4 ± 0.7 nM
B1: MLL1^160: N-terminal 160 amino acids of human MLL1, Cys2 mutated to alanine, recombinant (protein)
chain: MAHSARWRFPARPGTTGGGGGGGRRGLGGAPRQRVPALLLPPGPPVGGGGPGAPPSPPAVAAAAAAAGSSGAGVPGGAAAASAASSSSASSSSSSSSSASSGPALLRVGPGFDAALQVSAAIGTNLRRFRAVFGESGGGGGSGEDEQFLGFGSDEEVRVR
modifications: The printed 'Cys2' is the single N-terminal cysteine, Cys5 in the entry (peptide S4-A5-R6); Trx-His6 tag cleaved
